Data as given in publication PMC4145800.
Each block holds one substance with its values, some of them ahead of it.

Assays:
[1] = target: wild-type (polymerization-competent) yeast αβ-tubulin (yeast) (UniProt P09733); experiment: AUC; sedimentation velocity; TOG1-TOG2 or its mutants mixed with αβ-tubulin (∼5 molar equivalents of αβ-tubulin; seven concentrations of TOG1-TOG2 with 0.3 μM αβ-tubulin); two-site binding model; RB100 with 20 μM GTP, 20°C
[2] = target: wild-type (polymerization-competent) yeast αβ-tubulin (yeast) (UniProt P09733); experiment: AUC; sedimentation velocity; seven concentrations of TOG1 or TOG2 (44 nM-4.5 μM) titrated into 0.35 μM αβ-tubulin; 1:1 binding isotherm fitted; RB100 with 20 μM GTP, 20°C

- stoichiometry N (αβ-tubulins per TOG1-TOG2) [1]: 2
Substance: TOG1-TOG2(1-560) of Stu2p (from UniProt P46675 1-560) (domain or fragment)

- stoichiometry N (αβ-tubulin per TOG1-TOG2) [1]: 1
Substance: TOG1-TOG2 of Stu2p with the mutation R519A (from UniProt P46675 1-560) (domain or fragment)

- Kd [2]: 70 nM
- stoichiometry N [2]: 1
Substance: TOG1 domain from Stu2p, TOG1(1-317) (from UniProt P46675 1-317) (domain or fragment)

- stoichiometry N (αβ-tubulin per TOG1-TOG2) [1]: 1
Substance: TOG1-TOG2 of Stu2p with the mutation printed as W314A (from UniProt P46675 1-560) (domain or fragment)
